Measurements as given in patent US20220025010A1 (ANTAG THERAPEUTICS, published 2022).
*1 amine or outer side, *2 acyl side, *3 side chain or, on linkers, in order; H or OH if unused. Where no end group is shown, it is not given here. Side-chain parts run from the residue outwards. The star is where a group is joined. C18 diacid = O=C(O)CCCCCCCCCCCCCCCCC(=O)*; C16 diacid = O=C(O)CCCCCCCCCCCCCCC(=O)*; γGlu = O=C(O)[C@H](CCC(=O)[*:2])N[*:1]; AEEA = NCCOCCOCC(=O)O

T1: human GIP receptor (human, UniProt P48546 22-466)
T1 sequence (looked up): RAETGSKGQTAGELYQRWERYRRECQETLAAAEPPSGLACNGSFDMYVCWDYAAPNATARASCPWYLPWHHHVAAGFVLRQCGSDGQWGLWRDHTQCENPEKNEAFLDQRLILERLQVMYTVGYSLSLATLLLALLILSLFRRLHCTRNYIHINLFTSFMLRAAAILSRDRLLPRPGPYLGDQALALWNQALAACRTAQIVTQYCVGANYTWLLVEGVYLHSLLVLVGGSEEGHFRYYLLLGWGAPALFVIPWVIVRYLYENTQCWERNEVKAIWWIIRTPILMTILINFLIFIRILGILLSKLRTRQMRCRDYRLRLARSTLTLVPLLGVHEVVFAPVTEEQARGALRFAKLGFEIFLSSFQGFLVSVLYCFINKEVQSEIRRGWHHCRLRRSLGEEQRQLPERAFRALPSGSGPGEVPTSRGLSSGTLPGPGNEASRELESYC

B1: AT374 (peptide)
peptide: EGTFISDYSIAMDRIK([AEEA-AEEA-γGlu-C16 diacid])QQDFVNWLLAQR-NH2
modifications: not fully specified (residue 1)
B2: AT516 (peptide)
peptide: SGTFISDYSIAMDRIK([AEEA-AEEA-γGlu-C16 diacid])QQDFVNWLLAQR-NH2
modifications: N-terminus assumed
SMILES: CC[C@H](C)[C@H](NC(=O)[C@H](CO)NC(=O)[C@H](Cc1ccc(O)cc1)NC(=O)[C@H](CC(=O)O)NC(=O)[C@H](CO)NC(=O)[C@@H](NC(=O)[C@H](Cc1ccccc1)NC(=O)[C@@H](NC(=O)CNC(=O)[C@@H](N)CO)[C@@H](C)O)[C@@H](C)CC)C(=O)N[C@@H](C)C(=O)N[C@@H](CCSC)C(=O)N[C@@H](CC(=O)O)C(=O)N[C@@H](CCCNC(=N)N)C(=O)N[C@H](C(=O)N[C@@H](CCCCNC(=O)COCCOCCNC(=O)COCCOCCNC(=O)CC[C@H](NC(=O)CCCCCCCCCCCCCCC(=O)O)C(=O)O)C(=O)N[C@@H](CCC(N)=O)C(=O)N[C@@H](CCC(N)=O)C(=O)N[C@@H](CC(=O)O)C(=O)N[C@@H](Cc1ccccc1)C(=O)N[C@H](C(=O)N[C@@H](CC(N)=O)C(=O)N[C@@H](Cc1c[nH]c2ccccc12)C(=O)N[C@@H](CC(C)C)C(=O)N[C@@H](CC(C)C)C(=O)N[C@@H](C)C(=O)N[C@@H](CCC(N)=O)C(=O)N[C@@H](CCCNC(=N)N)C(N)=O)C(C)C)[C@@H](C)CC
B3: AT518 (peptide)
peptide: PGTFISDYSIAMDRIK([AEEA-AEEA-γGlu-C16 diacid])QQDFVNWLLAQR-NH2
modifications: N-terminus assumed
SMILES: CC[C@H](C)[C@H](NC(=O)[C@H](CO)NC(=O)[C@H](Cc1ccc(O)cc1)NC(=O)[C@H](CC(=O)O)NC(=O)[C@H](CO)NC(=O)[C@@H](NC(=O)[C@H](Cc1ccccc1)NC(=O)[C@@H](NC(=O)CNC(=O)[C@@H]1CCCN1)[C@@H](C)O)[C@@H](C)CC)C(=O)N[C@@H](C)C(=O)N[C@@H](CCSC)C(=O)N[C@@H](CC(=O)O)C(=O)N[C@@H](CCCNC(=N)N)C(=O)N[C@H](C(=O)N[C@@H](CCCCNC(=O)COCCOCCNC(=O)COCCOCCNC(=O)CC[C@H](NC(=O)CCCCCCCCCCCCCCC(=O)O)C(=O)O)C(=O)N[C@@H](CCC(N)=O)C(=O)N[C@@H](CCC(N)=O)C(=O)N[C@@H](CC(=O)O)C(=O)N[C@@H](Cc1ccccc1)C(=O)N[C@H](C(=O)N[C@@H](CC(N)=O)C(=O)N[C@@H](Cc1c[nH]c2ccccc12)C(=O)N[C@@H](CC(C)C)C(=O)N[C@@H](CC(C)C)C(=O)N[C@@H](C)C(=O)N[C@@H](CCC(N)=O)C(=O)N[C@@H](CCCNC(=N)N)C(N)=O)C(C)C)[C@@H](C)CC
B4: AT512 (peptide)
peptide: PGTFISDYSIAMDRIKQQDFVNWLLAQR
HELM: PEPTIDE1{P.G.T.F.I.S.D.Y.S.I.A.M.D.R.I.K.Q.Q.D.F.V.N.W.L.L.A.Q.R.[am]}|PEPTIDE2{[O=C(O)CCCCCCCCCCCCCCC(=O)[*:2]].[gGlu].[O=C(COCCOCCN[*:1])[*:2]]}$PEPTIDE1,PEPTIDE2,16:R3-3:R2$$$V2.0; N-terminus assumed
SMILES: CC[C@H](C)[C@H](NC(=O)[C@H](CO)NC(=O)[C@H](Cc1ccc(O)cc1)NC(=O)[C@H](CC(=O)O)NC(=O)[C@H](CO)NC(=O)[C@@H](NC(=O)[C@H](Cc1ccccc1)NC(=O)[C@@H](NC(=O)CNC(=O)[C@@H]1CCCN1)[C@@H](C)O)[C@@H](C)CC)C(=O)N[C@@H](C)C(=O)N[C@@H](CCSC)C(=O)N[C@@H](CC(=O)O)C(=O)N[C@@H](CCCNC(=N)N)C(=O)N[C@H](C(=O)N[C@@H](CCCCNC(=O)COCCOCCNC(=O)CC[C@H](NC(=O)CCCCCCCCCCCCCCC(=O)O)C(=O)O)C(=O)N[C@@H](CCC(N)=O)C(=O)N[C@@H](CCC(N)=O)C(=O)N[C@@H](CC(=O)O)C(=O)N[C@@H](Cc1ccccc1)C(=O)N[C@H](C(=O)N[C@@H](CC(N)=O)C(=O)N[C@@H](Cc1c[nH]c2ccccc12)C(=O)N[C@@H](CC(C)C)C(=O)N[C@@H](CC(C)C)C(=O)N[C@@H](C)C(=O)N[C@@H](CCC(N)=O)C(=O)N[C@@H](CCCNC(=N)N)C(N)=O)C(C)C)[C@@H](C)CC
B5: AT514 (peptide)
peptide: GGTFISDYSIAMDRIK([AEEA-AEEA-γGlu-C16 diacid])QQDFVNWLLAQR-NH2
modifications: N-terminus assumed
SMILES: CC[C@H](C)[C@H](NC(=O)[C@H](CO)NC(=O)[C@H](Cc1ccc(O)cc1)NC(=O)[C@H](CC(=O)O)NC(=O)[C@H](CO)NC(=O)[C@@H](NC(=O)[C@H](Cc1ccccc1)NC(=O)[C@@H](NC(=O)CNC(=O)CN)[C@@H](C)O)[C@@H](C)CC)C(=O)N[C@@H](C)C(=O)N[C@@H](CCSC)C(=O)N[C@@H](CC(=O)O)C(=O)N[C@@H](CCCNC(=N)N)C(=O)N[C@H](C(=O)N[C@@H](CCCCNC(=O)COCCOCCNC(=O)COCCOCCNC(=O)CC[C@H](NC(=O)CCCCCCCCCCCCCCC(=O)O)C(=O)O)C(=O)N[C@@H](CCC(N)=O)C(=O)N[C@@H](CCC(N)=O)C(=O)N[C@@H](CC(=O)O)C(=O)N[C@@H](Cc1ccccc1)C(=O)N[C@H](C(=O)N[C@@H](CC(N)=O)C(=O)N[C@@H](Cc1c[nH]c2ccccc12)C(=O)N[C@@H](CC(C)C)C(=O)N[C@@H](CC(C)C)C(=O)N[C@@H](C)C(=O)N[C@@H](CCC(N)=O)C(=O)N[C@@H](CCCNC(=N)N)C(N)=O)C(C)C)[C@@H](C)CC
B6: AT375 (peptide)
peptide: EGTFISDYSIAMDRIK([AEEA-AEEA-AEEA-γGlu-C16 diacid])QQDFVNWLLAQR-NH2
modifications: not fully specified (residue 1)
B7: AT265 (peptide)
peptide: SGTFISDYSIAMDRIKQQDFVNWLLAQR
HELM: PEPTIDE1{S.G.T.F.I.S.D.Y.S.I.A.M.D.R.I.K.Q.Q.D.F.V.N.W.L.L.A.Q.R}|PEPTIDE2{[O=C(O)CCCCCCCCCCCCCCC(=O)[*:2]].[gGlu]}$PEPTIDE1,PEPTIDE2,16:R3-2:R2$$$V2.0; N-terminus assumed
SMILES: CC[C@H](C)[C@H](NC(=O)[C@H](CO)NC(=O)[C@H](Cc1ccc(O)cc1)NC(=O)[C@H](CC(=O)O)NC(=O)[C@H](CO)NC(=O)[C@@H](NC(=O)[C@H](Cc1ccccc1)NC(=O)[C@@H](NC(=O)CNC(=O)[C@@H](N)CO)[C@@H](C)O)[C@@H](C)CC)C(=O)N[C@@H](C)C(=O)N[C@@H](CCSC)C(=O)N[C@@H](CC(=O)O)C(=O)N[C@@H](CCCNC(=N)N)C(=O)N[C@H](C(=O)N[C@@H](CCCCNC(=O)CC[C@H](NC(=O)CCCCCCCCCCCCCCC(=O)O)C(=O)O)C(=O)N[C@@H](CCC(N)=O)C(=O)N[C@@H](CCC(N)=O)C(=O)N[C@@H](CC(=O)O)C(=O)N[C@@H](Cc1ccccc1)C(=O)N[C@H](C(=O)N[C@@H](CC(N)=O)C(=O)N[C@@H](Cc1c[nH]c2ccccc12)C(=O)N[C@@H](CC(C)C)C(=O)N[C@@H](CC(C)C)C(=O)N[C@@H](C)C(=O)N[C@@H](CCC(N)=O)C(=O)N[C@@H](CCCNC(=N)N)C(=O)O)C(C)C)[C@@H](C)CC
B8: AT373 (peptide)
peptide: EGTFISDYSIAMDRIK([AEEA-γGlu-C16 diacid])QQDFVNWLLAQR-NH2
modifications: not fully specified (residue 1)
B9: AT376 (peptide)
peptide: EGTFISDYSIAMDRIK([AEEA-γGlu-C18 diacid])QQDFVNWLLAQR-NH2
modifications: not fully specified (residue 1)

The binders below were run against T1, human GIP receptor (assay: cell-based or functional assay).
In the case of B1, the “CisBio cAMP agonism % Efficacy” value is reported as 0%, the “CisBio cAMP antagonism % inhib” value is reported as 86% and the “CisBio cAMP antagonism IC50” value is reported as 17.1 nM. For the same binder, the “CisBio cAMP antagonism pIC50” value was 7.8, the “DiscoveRx cAMP antagonism % inhib” value was 100% and the “DiscoveRx cAMP antagonism IC50” value was 12 nM. The “DiscoveRx cAMP antagonism log IC50” value was -7.9 log M. For B2, the “CisBio cAMP agonism % Efficacy” value was 0%, the “CisBio cAMP antagonism % inhib” value was 88% and the “CisBio cAMP antagonism IC50” value was 27.1 nM. The “CisBio cAMP antagonism pIC50” value was 7.6, the “DiscoveRx cAMP antagonism % inhib” value was 100% and the “DiscoveRx cAMP antagonism IC50” value was 31 nM. For the same binder, the “DiscoveRx cAMP antagonism log IC50” value was -7.5 log M. With B3 the “CisBio cAMP agonism % Efficacy” value was 0%, the “CisBio cAMP antagonism % inhib” value was 71% and the “CisBio cAMP antagonism IC50” value was 85.8 nM. The “CisBio cAMP antagonism pIC50” value was 7.1, the “DiscoveRx cAMP agonism Emax” value was 5 and the “DiscoveRx cAMP antagonism % inhib” value was 100%. The “DiscoveRx cAMP antagonism IC50” value was 346 nM and the “DiscoveRx cAMP antagonism log IC50” value was -6.5 log M. For B4, the “CisBio cAMP agonism % Efficacy” value was 0%, the “CisBio cAMP antagonism % inhib” value was 73% and the “CisBio cAMP antagonism IC50” value was 79.4 nM. The “CisBio cAMP antagonism pIC50” value was 7.1, the “DiscoveRx cAMP antagonism % inhib” value was 80% and the “DiscoveRx cAMP antagonism IC50” value was 168 nM. For the same binder, the “DiscoveRx cAMP antagonism log IC50” value was -6.8 log M. In the case of B5, the “CisBio cAMP agonism % Efficacy” value is reported as 0%, the “CisBio cAMP antagonism % inhib” value is reported as 86% and the “CisBio cAMP antagonism IC50” value is reported as 31.6 nM. The “CisBio cAMP antagonism pIC50” value was 7.5, the “DiscoveRx cAMP antagonism % inhib” value was 80% and the “DiscoveRx cAMP antagonism IC50” value was 39 nM. For the same binder, the “DiscoveRx cAMP antagonism log IC50” value was -7.4 log M. With B6 the “CisBio cAMP agonism % Efficacy” value was 6%, the “CisBio cAMP antagonism % inhib” value was 83% and the “CisBio cAMP antagonism IC50” value was 23.3 nM. The “CisBio cAMP antagonism pIC50” value was 7.6, the “DiscoveRx cAMP antagonism % inhib” value was 100% and the “DiscoveRx cAMP antagonism IC50” value was 22 nM. For the same binder, the “DiscoveRx cAMP antagonism log IC50” value was -7.7 log M. For B7, the “CisBio cAMP agonism % Efficacy” value was 8%, the “CisBio cAMP antagonism % inhib” value was 73% and the “CisBio cAMP antagonism IC50” value was 58.4 nM. For the same binder, the “CisBio cAMP antagonism pIC50” value was 7.2, the “DiscoveRx cAMP agonism Emax” value was 10 and the “DiscoveRx cAMP antagonism IC50” value was 33 nM. The “DiscoveRx cAMP antagonism log IC50” value was -7.5 log M. For B8, the “CisBio cAMP agonism % Efficacy” value was 0%, the “CisBio cAMP antagonism % inhib” value was 91% and the “CisBio cAMP antagonism IC50” value was 12.6 nM. For the same binder, the “CisBio cAMP antagonism pIC50” value was 7.9, the “DiscoveRx cAMP antagonism % inhib” value was 94% and the “DiscoveRx cAMP antagonism IC50” value was 10 nM. For the same binder, the “DiscoveRx cAMP antagonism log IC50” value was -8 log M. For B9, the “CisBio cAMP agonism % Efficacy” value was 0%, the “CisBio cAMP antagonism % inhib” value was 87% and the “CisBio cAMP antagonism IC50” value was 6.81 nM. The “CisBio cAMP antagonism pIC50” value was 8.2, the “DiscoveRx cAMP antagonism % inhib” value was 90% and the “DiscoveRx cAMP antagonism IC50” value was 19 nM. For the same binder, the “DiscoveRx cAMP antagonism log IC50” value was -7.7 log M.
